Laboratory results: FireProtDB (doi:10.1007/s00792-015-0748-z)

Conditions: Pyrococcus furiosus (strain ATCC 43587 / DSM 3638 / JCM 8422 / Vc1), 60 °C, GdnHCl, Fluorescence, Tris, NaCl, transition: 2, reversible: yes, whole UniProt chain shown

B1: L-asparaginase wild type, Q8TZE8 (protein)
chain: MKILLIGMGGTIASVKGENGYEASLSVKEVLDIAGIKDCEDCDFLDLKNVDSTLIQPEDWVDLAETLYKNVKKYDGIIVTHGTDTLAYTSSMISFMLRNPPIPIVFTGSMIPATEENSDAPLNLQTAIKFATSGIRGVYVAFNGKVMLGVRTSKVRTMSRDAFESINYPIIAELRGEDLVVNFIPKFNNGEVTLDLRHDPKVLVIKLIPGLSGDIFRAAVELGYRGIVIEGYGAGGIPYRGSDLLQTIEELSKEIPIVMTTQAMYDGVDLTRYKVGRLALRAGVIPAGDMTKEATVTKLMWILGHTNNVEEIKVLMRKNLVGELRD
denaturant m value (pH 8): 5.12 kcal/mol/M
denaturant midpoint (higher = more stable) (pH 8): 3.04 M
unfolding free energy (pH 8): 15.7 kcal/mol
denaturant m value (pH 9): 0.9 kcal/mol/M
denaturant midpoint (higher = more stable) (pH 9): 1.99 M
unfolding free energy (pH 9): 1.6 kcal/mol
